{"source": "patent US20060234343A1", "about": "(published 2006)", "binders": {"B1": {"name": "EGF (species not stated) (ligand)", "chain": "NSYPGCPSSYDGYCLNGGVCMHIESLDSYTCNCVIGYSGDRCQTRDLRWWELR", "modifications": "In the FIG. 8 assay the trace is EGF mono-labelled with a europium chelate (Wallac); site not stated. The EGF in the ultracentrifuge is unlabelled.", "notes": "Kept apart from hEGF and mEGF because these experiments say only EGF; the two experiments may have used different EGF; also called unlabelled EGF; Eu-EGF (Wallac)"}}, "molecular_target": "T1, EGFR501Fcflag (ErbB1501.Fc fusion protein homodimer) (human, UniProt P00533 25-525)", "T1 construct": "Captured from 293T supernatant on protein G coated wells; also called truncated form of the extracellular domain of the EGF receptor, expressed as an Fc fusion homodimer; not shown: spacer peptide N-terminal of the Fc; human IgG1 Fc region (from a genomic fragment)", "assay": "Eu-EGF displacement by unlabelled EGF from the Fc fusion homodimer captured on protein G; the reference value is from the literature", "method": "Ligand binding assays. The wells of a 96-well Lumitrac 600 plate (Greiner) were coated with protein G (2 ug/ml in 10 mM sodium citrate buffer, pH 9.6; Sigma). […] After incubation at room temperature, wells were aspirated, washed in TBS plus 0.05% Tween-20, and Enhancement Solution (Perkin-Elmer) added to each well for 20 minutes."}
{"binder": "B1", "values": [{"measurement": "fold higher affinity than that reported for the full-length ErbB1 ectodomain-Fc fusion protein", "result": 10, "unit": "fold"}]}
